Columns and labels:
His-Ub = biological target: T1, His-Ub (UniProt P0CG48 1-76); assay: pull-down; interaction assay with His-Ub and GST-CstF-50 as described previously (ref. 5); pellets and supernatants analysed by immunoblotting under denaturing PAGE; conditions: both partners purified
T1 construct: ubiquitin (Ub), the cut product of its precursor; also called ubiquitin; source: E. coli BL21, purified (Ni-agarose)

[1] = biological target: T2, ΔBRCA1/BARD1-wt heterodimeric complex (truncated BRCA1 residues 1 to 304 and full-length BARD1) (UniProt P38398 1-304; Q99728 1-777); assay: pull-down; ΔBRCA1/BARD1 (wt or Q564H) incubated with GST-CstF-50 and/or His-p97, immunoprecipitated with anti-BARD1 or preimmune sera; washes with buffer A (PBS, 0.01% Nonidet P-40, 0.04% BSA) including 300 mM NaCl; Western blot; conditions: both partners purified
T2 construct: truncated BRCA1 spanning the RING domain, residues 1 to 304; full-length BARD1, wild type; also called BRCA1/BARD1 heterodimer
T2 sequence (P38398 1-304, stated change not applied, chain 1 of 2): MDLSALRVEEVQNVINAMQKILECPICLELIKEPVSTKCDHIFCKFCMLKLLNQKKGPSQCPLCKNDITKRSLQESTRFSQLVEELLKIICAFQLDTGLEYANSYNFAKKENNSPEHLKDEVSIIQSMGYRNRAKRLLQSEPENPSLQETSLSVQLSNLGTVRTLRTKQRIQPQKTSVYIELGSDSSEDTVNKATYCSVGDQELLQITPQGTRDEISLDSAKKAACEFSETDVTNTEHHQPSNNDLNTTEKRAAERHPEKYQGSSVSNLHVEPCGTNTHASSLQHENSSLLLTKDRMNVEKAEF
T2 sequence (Q99728 whole entry, stated change not applied, chain 2 of 2, the tested form may be a part): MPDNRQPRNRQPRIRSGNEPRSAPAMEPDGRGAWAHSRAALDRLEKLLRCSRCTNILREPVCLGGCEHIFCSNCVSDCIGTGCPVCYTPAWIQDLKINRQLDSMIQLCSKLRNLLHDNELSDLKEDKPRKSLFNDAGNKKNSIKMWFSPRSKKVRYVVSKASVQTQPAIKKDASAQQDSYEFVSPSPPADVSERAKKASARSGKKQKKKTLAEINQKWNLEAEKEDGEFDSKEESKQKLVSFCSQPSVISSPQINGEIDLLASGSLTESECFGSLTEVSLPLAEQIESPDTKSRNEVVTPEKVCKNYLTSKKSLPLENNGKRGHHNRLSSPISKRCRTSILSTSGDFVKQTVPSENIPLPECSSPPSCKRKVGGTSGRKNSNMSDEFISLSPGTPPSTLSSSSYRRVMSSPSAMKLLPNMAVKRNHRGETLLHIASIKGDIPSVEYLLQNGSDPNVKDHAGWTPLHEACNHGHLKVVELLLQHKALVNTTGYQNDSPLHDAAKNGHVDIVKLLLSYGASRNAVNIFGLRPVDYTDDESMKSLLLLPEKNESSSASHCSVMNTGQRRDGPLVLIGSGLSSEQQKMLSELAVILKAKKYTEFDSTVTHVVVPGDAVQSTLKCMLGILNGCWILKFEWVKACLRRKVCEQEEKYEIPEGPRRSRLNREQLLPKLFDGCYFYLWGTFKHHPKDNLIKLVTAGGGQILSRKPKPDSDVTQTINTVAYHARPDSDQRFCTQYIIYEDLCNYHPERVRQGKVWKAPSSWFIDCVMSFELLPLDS

binding result (His-Ub): binds
binding result [1]: binds
B1: GST-CstF-50 (natural protein, UniProt Q05048 1-431, looked up)
chain: MYRTKVGLKDRQQLYKLIISQLLYDGYISIANGLINEIKPQSVCAPSEQLLHLIKLGMENDDTAVQYAIGRSDTVAPGTGIDLEFDADVQTMSPEASEYETCYVTSHKGPCRVATYSRDGQLIATGSADASIKILDTERMLAKSAMPIEVMMNETAQQNMENHPVIRTLYDHVDEVTCLAFHPTEQILASGSRDYTLKLFDYSKPSAKRAFKYIQEAEMLRSISFHPSGDFILVGTQHPTLRLYDINTFQCFVSCNPQDQHTDAICSVNYNSSANMYVTGSKDGCIKLWDGVSNRCITTFEKAHDGAEVCSAIFSKNSKYILSSGKDSVAKLWEISTGRTLVRYTGAGLSGRQVHRTQAVFNHTEDYVLLPDERTISLCCWDSRTAERRNLLSLGHNNIVRCIVHSPTNPGFMTCSDDFRARFWYRRSTTD
notes: CstF-50 (cleavage stimulation factor 50), recombinant; also called glutathione S-transferase (GST)-CstF-50; source: E. coli BL21, purified (glutathione-agarose)
